According to patent US20250304655A1 (CSL BEHRING, published 2025):

What was measured:
Experiment in all cases: BLI, LRP1 cluster III immobilised, analyte 2000-31.25 nM, kinetic fit 1:1
heme:Hx-Hp complex = biological target: T1, heme:Hx-Hp complex (human, UniProt P02790 24-462; P00738 162-406, heme bound, not covalent)
T1 construct: The Hx-Hp fusion protein loaded with heme
Procedure: (§1) Streptavidin pre-coated biosensors (Cat No: 18-5019, FortéBio) were used. […] A reference control was included in every experiment (sensor loaded with ligand without analyte). Data was acquired on an OctetRED96 (FortéBio) at 30° C. with the following settings:
(§2) Since the full length receptor is challenging to express recombiantly, we immobilized only a fragment of CD91/LRP1 (cluster III).

[1] = biological target: T2, heme:Hx (plasma derived hemopexin complexed with heme) (UniProt P02790 24-462, limits assumed, heme bound, not covalent)
T2 construct: mature; Heme-loaded plasma-derived hemopexin, analyte in BLI; also called heme complexed plasma derived Hx; heme-hemopexin complex
T2 sequence (looked up): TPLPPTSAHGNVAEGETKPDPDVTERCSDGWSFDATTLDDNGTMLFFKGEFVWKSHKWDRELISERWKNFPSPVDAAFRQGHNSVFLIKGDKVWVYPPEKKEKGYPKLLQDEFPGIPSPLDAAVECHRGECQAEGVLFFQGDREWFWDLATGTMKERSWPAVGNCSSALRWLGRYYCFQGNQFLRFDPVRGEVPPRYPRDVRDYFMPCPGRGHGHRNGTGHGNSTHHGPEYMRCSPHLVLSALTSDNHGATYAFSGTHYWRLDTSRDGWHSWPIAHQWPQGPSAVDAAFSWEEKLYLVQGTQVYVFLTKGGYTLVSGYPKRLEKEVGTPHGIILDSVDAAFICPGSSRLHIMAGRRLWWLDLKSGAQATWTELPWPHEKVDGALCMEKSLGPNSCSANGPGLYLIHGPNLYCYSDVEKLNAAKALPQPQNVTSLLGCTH
Procedure: as §1, §2

[2] = biological target: T3, HuHemopexin-HuHaptoglobin2FS(148-406)-8His (human, UniProt P02790 24-462; P00738 162-406)
T3 construct: Cleaved by co-expressed C1r-LP; the two chains are held by the inter-chain disulphide; Uncomplexed form (no heme, no Hb)
Procedure: as §1, §2

T3 sequence (P00738 other isoform, or with tags, fused parts or gaps): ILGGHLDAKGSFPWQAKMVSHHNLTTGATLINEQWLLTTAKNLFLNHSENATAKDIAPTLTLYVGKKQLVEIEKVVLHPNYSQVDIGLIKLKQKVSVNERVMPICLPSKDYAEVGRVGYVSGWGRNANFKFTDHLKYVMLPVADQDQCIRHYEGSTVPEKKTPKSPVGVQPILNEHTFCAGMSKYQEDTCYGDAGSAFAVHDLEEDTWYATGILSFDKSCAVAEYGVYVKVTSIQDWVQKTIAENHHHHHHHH
T1 sequence (P00738 other isoform, or with tags, fused parts or gaps): as above

B1: biotinylated LRP1 Cluster III (receptor)
chain: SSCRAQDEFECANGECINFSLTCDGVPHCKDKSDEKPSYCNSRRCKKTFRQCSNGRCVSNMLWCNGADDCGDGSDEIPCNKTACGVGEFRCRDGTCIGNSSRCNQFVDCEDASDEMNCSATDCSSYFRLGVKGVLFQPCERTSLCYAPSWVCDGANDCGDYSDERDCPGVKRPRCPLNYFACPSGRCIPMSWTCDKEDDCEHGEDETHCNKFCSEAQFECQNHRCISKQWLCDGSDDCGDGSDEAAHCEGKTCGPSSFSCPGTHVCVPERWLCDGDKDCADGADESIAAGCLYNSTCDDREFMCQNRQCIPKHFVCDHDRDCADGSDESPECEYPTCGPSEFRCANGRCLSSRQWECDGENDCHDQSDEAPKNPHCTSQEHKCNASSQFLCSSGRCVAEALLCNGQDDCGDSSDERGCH
modifications: biotinylated
notes: Detected with an anti-His antibody, so it appears to carry a His tag; also called LRP1/CD91 domain 3; CD91/LRP1 (cluster III)
Kd (heme:Hx-Hp complex): 480 nM | koff (heme:Hx-Hp complex): 0.044 s⁻¹ | kon (heme:Hx-Hp complex): 91000 M⁻¹ s⁻¹ | Kd [1]: 392 nM | koff [1]: 0.068 s⁻¹ | kon [1]: 170000 M⁻¹ s⁻¹ | Kd [2]: 2700 nM | koff [2]: 0.039 s⁻¹ | kon [2]: 15000 M⁻¹ s⁻¹
